Substrate in this series: O=C(O)/C=C/c1ccc(O)c(O)c1
In words: purified protein. The conditions noted are these: co-substrate SAM.

Where [1] appears, read: optimal conditions (30°C, pH 8.0).
[2] abbreviates: optimal conditions (35°C, pH 8.0).

Drawing on article PMC11968058, this text covers kcat and kcat/Km for six proteins.

B1: AtCOMT (Arabidopsis thaliana) (protein)
chain: MGSTAETQLTPVQVTDDEAALFAMQLASASVLPMALKSALELDLLEIMAKNGSPMSPTEIASKLPTKNPEAPVMLDRILRLLTSYSVLTCSNRKLSGDGVERIYGLGPVCKYLTKNEDGVSIAALCLMNQDKVLMESWYHLKDAILDGGIPFNKAYGMSAFEYHGTDPRFNKVFNNGMSNHSTITMKKILETYKGFEGLTSLVDVGGGIGATLKMIVSKYPNLKGINFDLPHVIEDAPSHPGIEHVGGDMFVSVPKGDAIFMKWICHDWSDEHCVKFLKNCYESLPEDGKVILAECILPETPDSSLSTKQVVHVDCIMLAHNPGGKERTEKEFEALAKASGFKGIKVVCDAFGVNLIELLKKL
Take B1: under setting [1], the kcat came to 0.327 s⁻¹ and the kcat/Km was found to be 482 M⁻¹ s⁻¹.

B2: AtCOMT (Arabidopsis thaliana; H313A/N129V) (protein)
chain: MGSTAETQLTPVQVTDDEAALFAMQLASASVLPMALKSALELDLLEIMAKNGSPMSPTEIASKLPTKNPEAPVMLDRILRLLTSYSVLTCSNRKLSGDGVERIYGLGPVCKYLTKNEDGVSIAALCLMVQDKVLMESWYHLKDAILDGGIPFNKAYGMSAFEYHGTDPRFNKVFNNGMSNHSTITMKKILETYKGFEGLTSLVDVGGGIGATLKMIVSKYPNLKGINFDLPHVIEDAPSHPGIEHVGGDMFVSVPKGDAIFMKWICHDWSDEHCVKFLKNCYESLPEDGKVILAECILPETPDSSLSTKQVVAVDCIMLAHNPGGKERTEKEFEALAKASGFKGIKVVCDAFGVNLIELLKKL
With B2, for the setting “optimal conditions”, the kcat is 0.498 s⁻¹ and the kcat/Km stood at 1390 M⁻¹ s⁻¹.

B3: AtCOMT (Arabidopsis thaliana; F174L/H313A/N129V) (protein)
chain: MGSTAETQLTPVQVTDDEAALFAMQLASASVLPMALKSALELDLLEIMAKNGSPMSPTEIASKLPTKNPEAPVMLDRILRLLTSYSVLTCSNRKLSGDGVERIYGLGPVCKYLTKNEDGVSIAALCLMVQDKVLMESWYHLKDAILDGGIPFNKAYGMSAFEYHGTDPRFNKVLNNGMSNHSTITMKKILETYKGFEGLTSLVDVGGGIGATLKMIVSKYPNLKGINFDLPHVIEDAPSHPGIEHVGGDMFVSVPKGDAIFMKWICHDWSDEHCVKFLKNCYESLPEDGKVILAECILPETPDSSLSTKQVVAVDCIMLAHNPGGKERTEKEFEALAKASGFKGIKVVCDAFGVNLIELLKKL
In the case of B3, under setting [2], the kcat is 0.475 s⁻¹ and the kcat/Km was 2020 M⁻¹ s⁻¹.

B4: AtCOMT (Arabidopsis thaliana; H313A) (protein)
chain: MGSTAETQLTPVQVTDDEAALFAMQLASASVLPMALKSALELDLLEIMAKNGSPMSPTEIASKLPTKNPEAPVMLDRILRLLTSYSVLTCSNRKLSGDGVERIYGLGPVCKYLTKNEDGVSIAALCLMNQDKVLMESWYHLKDAILDGGIPFNKAYGMSAFEYHGTDPRFNKVFNNGMSNHSTITMKKILETYKGFEGLTSLVDVGGGIGATLKMIVSKYPNLKGINFDLPHVIEDAPSHPGIEHVGGDMFVSVPKGDAIFMKWICHDWSDEHCVKFLKNCYESLPEDGKVILAECILPETPDSSLSTKQVVAVDCIMLAHNPGGKERTEKEFEALAKASGFKGIKVVCDAFGVNLIELLKKL
For B4, for the setting “optimal conditions”, the kcat was 0.4 s⁻¹ and the kcat/Km stood at 606 M⁻¹ s⁻¹.

B5: AtCOMT (Arabidopsis thaliana; F174L) (protein)
chain: MGSTAETQLTPVQVTDDEAALFAMQLASASVLPMALKSALELDLLEIMAKNGSPMSPTEIASKLPTKNPEAPVMLDRILRLLTSYSVLTCSNRKLSGDGVERIYGLGPVCKYLTKNEDGVSIAALCLMNQDKVLMESWYHLKDAILDGGIPFNKAYGMSAFEYHGTDPRFNKVLNNGMSNHSTITMKKILETYKGFEGLTSLVDVGGGIGATLKMIVSKYPNLKGINFDLPHVIEDAPSHPGIEHVGGDMFVSVPKGDAIFMKWICHDWSDEHCVKFLKNCYESLPEDGKVILAECILPETPDSSLSTKQVVHVDCIMLAHNPGGKERTEKEFEALAKASGFKGIKVVCDAFGVNLIELLKKL
B5: where the note is “optimal conditions”, the kcat worked out at 0.369 s⁻¹ and the kcat/Km worked out at 1120 M⁻¹ s⁻¹.

B6: AtCOMT (Arabidopsis thaliana; N129V) (protein)
chain: MGSTAETQLTPVQVTDDEAALFAMQLASASVLPMALKSALELDLLEIMAKNGSPMSPTEIASKLPTKNPEAPVMLDRILRLLTSYSVLTCSNRKLSGDGVERIYGLGPVCKYLTKNEDGVSIAALCLMVQDKVLMESWYHLKDAILDGGIPFNKAYGMSAFEYHGTDPRFNKVFNNGMSNHSTITMKKILETYKGFEGLTSLVDVGGGIGATLKMIVSKYPNLKGINFDLPHVIEDAPSHPGIEHVGGDMFVSVPKGDAIFMKWICHDWSDEHCVKFLKNCYESLPEDGKVILAECILPETPDSSLSTKQVVHVDCIMLAHNPGGKERTEKEFEALAKASGFKGIKVVCDAFGVNLIELLKKL
Turning to B6, for the setting “optimal conditions”, the kcat was 0.458 s⁻¹ and the kcat/Km was 828 M⁻¹ s⁻¹.
